In US20150344570A1 (published 2015):

Legend:
[1] = target: T1, FcγRIIIa extracellular domain with C-terminal His tag (human, UniProt P08637 17-208); assay: SPR (Biacore), FcγR as analyte over captured antibody; GpH7-A5/GpH7-B3/GpL16-k0 = 100
T1 construct: extracellular domain; also called FcgRIIIa; 3a; not shown: His tag at the C terminus

[2] = target: T2, FcγRIIb extracellular domain with C-terminal His tag (human, UniProt P31994 43-217); assay: as above
T2 construct: extracellular domain; also called FcgRIIb; 2b; not shown: His tag at the C terminus
T2 sequence (looked up): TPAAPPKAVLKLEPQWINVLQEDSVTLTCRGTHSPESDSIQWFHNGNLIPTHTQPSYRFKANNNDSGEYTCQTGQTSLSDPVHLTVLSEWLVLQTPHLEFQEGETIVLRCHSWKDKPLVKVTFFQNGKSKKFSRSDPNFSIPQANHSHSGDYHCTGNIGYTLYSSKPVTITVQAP

[3] = target: T1, FcγRIIIa extracellular domain with …; assay: SPR (Biacore); He/Con_3a divided by He/Con_2b (FcγRIIb)

T1 sequence (P08637 17-208): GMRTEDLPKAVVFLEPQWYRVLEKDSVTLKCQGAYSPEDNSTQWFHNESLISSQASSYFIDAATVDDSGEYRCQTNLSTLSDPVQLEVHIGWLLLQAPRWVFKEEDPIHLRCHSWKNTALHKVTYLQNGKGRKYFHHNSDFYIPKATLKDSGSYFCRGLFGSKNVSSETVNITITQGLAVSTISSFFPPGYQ

B1: GpH7-A5/GpH7-B3 variant N325_20W/GpL16-k0 (antibody, human IgG1, kappa)
heavy 1: not shown
heavy 2: not shown
light: DIVMTQSPLSLPVTPGEPASISCQASESLVHSNRNTYLHWYLQKPGQSPQLLIYKVSNRFSGVPDRFSGSGSGTDFTLKISRVEAEDVGVYYCSQNTHVPPTFGQGTKVEIERTVAAPSVFIFPPSDEQLKSGTASVVCLLNNFYPREAKVQWKVDNALQSGNSQESVTEQDSKDSTYSLSSTLTLSKADYEKHKVYACEVTHQGLSSPVTKSFNRGEC
notes: Heterodimerized IgG1 antibody; alteration in the GpH7-B3 chain only; also called He Ab
With B1 the He/Con_3a [1] was 32.8 % of control, the He/Con_2b [2] was 169 % of control and the “He_3a/2b (IIIa/IIb)” value [3] was 0.19 ratio.

B2: GpH7-A5/GpH7-B3 variant P271_09D/GpL16-k0 (antibody, human IgG1, kappa)
heavy 1: not shown
heavy 2: not shown
light: DIVMTQSPLSLPVTPGEPASISCQASESLVHSNRNTYLHWYLQKPGQSPQLLIYKVSNRFSGVPDRFSGSGSGTDFTLKISRVEAEDVGVYYCSQNTHVPPTFGQGTKVEIERTVAAPSVFIFPPSDEQLKSGTASVVCLLNNFYPREAKVQWKVDNALQSGNSQESVTEQDSKDSTYSLSSTLTLSKADYEKHKVYACEVTHQGLSSPVTKSFNRGEC
notes: as for B1
B2 was tested, and the He/Con_3a [1] was 93.1 % of control, the He/Con_2b [2] was 120 % of control and the “He_3a/2b (IIIa/IIb)” value [3] was 0.77 ratio.

B3: GpH7-A5/GpH7-B3 variant P271_14T/GpL16-k0 (antibody, human IgG1, kappa)
heavy 1: not shown
heavy 2: not shown
light: DIVMTQSPLSLPVTPGEPASISCQASESLVHSNRNTYLHWYLQKPGQSPQLLIYKVSNRFSGVPDRFSGSGSGTDFTLKISRVEAEDVGVYYCSQNTHVPPTFGQGTKVEIERTVAAPSVFIFPPSDEQLKSGTASVVCLLNNFYPREAKVQWKVDNALQSGNSQESVTEQDSKDSTYSLSSTLTLSKADYEKHKVYACEVTHQGLSSPVTKSFNRGEC
notes: as for B1
In the case of B3, the He/Con_3a [1] is reported as 56.4 % of control, the He/Con_2b [2] is reported as 95.4 % of control and the “He_3a/2b (IIIa/IIb)” value [3] is reported as 0.59 ratio.

B4: GpH7-A5/GpH7-B3 variant S298_05P/GpL16-k0 (antibody, human IgG1, kappa)
heavy 1: not shown
heavy 2: not shown
light: DIVMTQSPLSLPVTPGEPASISCQASESLVHSNRNTYLHWYLQKPGQSPQLLIYKVSNRFSGVPDRFSGSGSGTDFTLKISRVEAEDVGVYYCSQNTHVPPTFGQGTKVEIERTVAAPSVFIFPPSDEQLKSGTASVVCLLNNFYPREAKVQWKVDNALQSGNSQESVTEQDSKDSTYSLSSTLTLSKADYEKHKVYACEVTHQGLSSPVTKSFNRGEC
notes: as for B1
For B4, the He/Con_3a [1] was 8.2 % of control, the He/Con_2b [2] was 11.9 % of control and the “He_3a/2b (IIIa/IIb)” value [3] was 0.69 ratio.

B5: GpH7-A5/GpH7-B3 variant S298_08L/GpL16-k0 (antibody, human IgG1, kappa)
heavy 1: not shown
heavy 2: not shown
light: DIVMTQSPLSLPVTPGEPASISCQASESLVHSNRNTYLHWYLQKPGQSPQLLIYKVSNRFSGVPDRFSGSGSGTDFTLKISRVEAEDVGVYYCSQNTHVPPTFGQGTKVEIERTVAAPSVFIFPPSDEQLKSGTASVVCLLNNFYPREAKVQWKVDNALQSGNSQESVTEQDSKDSTYSLSSTLTLSKADYEKHKVYACEVTHQGLSSPVTKSFNRGEC
notes: as for B1
With B5 the He/Con_3a [1] was 73.5 % of control, the He/Con_2b [2] was 108 % of control and the “He_3a/2b (IIIa/IIb)” value [3] was 0.68 ratio.

B6: GpH7-A5/GpH7-B3 variant S324_05P/GpL16-k0 (antibody, human IgG1, kappa)
heavy 1: not shown
heavy 2: not shown
light: DIVMTQSPLSLPVTPGEPASISCQASESLVHSNRNTYLHWYLQKPGQSPQLLIYKVSNRFSGVPDRFSGSGSGTDFTLKISRVEAEDVGVYYCSQNTHVPPTFGQGTKVEIERTVAAPSVFIFPPSDEQLKSGTASVVCLLNNFYPREAKVQWKVDNALQSGNSQESVTEQDSKDSTYSLSSTLTLSKADYEKHKVYACEVTHQGLSSPVTKSFNRGEC
notes: as for B1
In the case of B6, the He/Con_3a [1] is reported as 65.5 % of control, the He/Con_2b [2] is reported as 94.7 % of control and the “He_3a/2b (IIIa/IIb)” value [3] is reported as 0.69 ratio.

B7: GpH7-A5/GpH7-B3 variant Y296_01G/GpL16-k0 (antibody, human IgG1, kappa)
heavy 1: not shown
heavy 2: not shown
light: DIVMTQSPLSLPVTPGEPASISCQASESLVHSNRNTYLHWYLQKPGQSPQLLIYKVSNRFSGVPDRFSGSGSGTDFTLKISRVEAEDVGVYYCSQNTHVPPTFGQGTKVEIERTVAAPSVFIFPPSDEQLKSGTASVVCLLNNFYPREAKVQWKVDNALQSGNSQESVTEQDSKDSTYSLSSTLTLSKADYEKHKVYACEVTHQGLSSPVTKSFNRGEC
notes: as for B1
With B7 the He/Con_3a [1] was 54.5 % of control, the He/Con_2b [2] was 79.3 % of control and the “He_3a/2b (IIIa/IIb)” value [3] was 0.69 ratio.

B8: GpH7-A5/GpH7-B3 variant Y296_11K/GpL16-k0 (antibody, human IgG1, kappa)
heavy 1: not shown
heavy 2: not shown
light: DIVMTQSPLSLPVTPGEPASISCQASESLVHSNRNTYLHWYLQKPGQSPQLLIYKVSNRFSGVPDRFSGSGSGTDFTLKISRVEAEDVGVYYCSQNTHVPPTFGQGTKVEIERTVAAPSVFIFPPSDEQLKSGTASVVCLLNNFYPREAKVQWKVDNALQSGNSQESVTEQDSKDSTYSLSSTLTLSKADYEKHKVYACEVTHQGLSSPVTKSFNRGEC
notes: as for B1
In the case of B8, the He/Con_3a [1] is reported as 56.7 % of control, the He/Con_2b [2] is reported as 72.8 % of control and the “He_3a/2b (IIIa/IIb)” value [3] is reported as 0.78 ratio.

B9: GpH7-A5/GpH7-B3 variant Y296_13S/GpL16-k0 (antibody, human IgG1, kappa)
heavy 1: not shown
heavy 2: not shown
light: DIVMTQSPLSLPVTPGEPASISCQASESLVHSNRNTYLHWYLQKPGQSPQLLIYKVSNRFSGVPDRFSGSGSGTDFTLKISRVEAEDVGVYYCSQNTHVPPTFGQGTKVEIERTVAAPSVFIFPPSDEQLKSGTASVVCLLNNFYPREAKVQWKVDNALQSGNSQESVTEQDSKDSTYSLSSTLTLSKADYEKHKVYACEVTHQGLSSPVTKSFNRGEC
notes: as for B1
B9 was tested, and the He/Con_3a [1] was 61.8 % of control, the He/Con_2b [2] was 86.3 % of control and the “He_3a/2b (IIIa/IIb)” value [3] was 0.72 ratio.
